Test results: patent US20190071489A1
“And” between values parts separate entries of the source, which are not always exact repeats. Equal values may be shown once.

B1: EVB100 (antibody, V domains shown)
VH: QVQLQESGPGLVKPSDTLSLTCTVSGGSLSSFYWSWIRQPPGKGLEWIGYIYYSGSPNYSPSLESRVTMSVDTTRNQISLKLDSVTAADTAVYYCVRASRSYYWGSYRPTAFDSWGQGTLVTVSS
VL: SYELTQPLSVSVSPGQTAIFTCSGDNLGDKYVCWFQQRPGQSPMLLIYQDNKRPSGIPERFSGSNSGNTATLTISGTQSTDEADYYCQTWDSTVVFGGGTKLTVL
B2: EVB114 (antibody, V domains shown)
VH: EVQLVESGGGLIQPGGSLRLSCAASGFALRMYDMHWVRQTIDKRLEWVSAVGPSGDTYYADSVKGRFAVSRENAKNSLSLQMNSLTAGDTAIYYCVRSDRGVAGLFDSWGQGILVTVSS
VL: DIQMTQSPSSLSASVGDRITITCRASQAFDNYVAWYQQRPGKVPKLLISAASALHAGVPSRFSGSGSGTHFTLTISSLQPEDVATYYCQNYNSAPLTFGGGTKVEIK
B3: EVB165 (antibody, V domains shown)
VH: DVQLVESGGGVVQPGGSLKLACVVSGFRFSDYWMSWVRQAPGKGLEWVANIKQDGSGKYYVDSVKGRFTVSRDNAKNSLYLHMTSLGAEDTAVYFCARAAPTGSYTNILVDNVHFDYWGQGILVAVSS
VL: GIQLTQSPGSLSASVGDSVTITCRPNQNIATYINWYQQTPGKAPKLLIYAASILQSGVPSRFSGAGSGTHFTLIISTLQPEDSATYYCQQSYSTPWTFGQGTKVEIK
B4: EVB167 (antibody, V domains shown)
VH: AVQLVQSGAEVKKPGTTVKISCKVSGYTFIQEYIHWVQQAPGKGLVWMGLGDPENNETLYSEDFQGRVTMTADTSSDTAYLELRSLTFADTAVYFCTSRKSWWGQGTLVTVAS
VL: ELVLTQSPGTLSLSPGESATLSCRASQSLSSDSVSWFQQKPGQAPRLVIHGTSKRATGIPDRFSGGGSGTDFTLTIARLEPEDFAVYYCQRSGYGMSVTWTFGQGTTVEIK

Assays:
[1] = molecular target: EBOV GP (Ebola virus , Mayinga) (UniProt Q05320); assay: cell-based or functional assay
[2] = molecular target: EBOV GP (Ebola virus , Mayinga) (UniProt Q05320)
[3] = molecular target: EBOV GP (Ebola virus , Mayinga) (UniProt Q05320); remark: listed apart in the source

UniProt Q05320, sequence (Q05320 33-501, chain 1 of 2): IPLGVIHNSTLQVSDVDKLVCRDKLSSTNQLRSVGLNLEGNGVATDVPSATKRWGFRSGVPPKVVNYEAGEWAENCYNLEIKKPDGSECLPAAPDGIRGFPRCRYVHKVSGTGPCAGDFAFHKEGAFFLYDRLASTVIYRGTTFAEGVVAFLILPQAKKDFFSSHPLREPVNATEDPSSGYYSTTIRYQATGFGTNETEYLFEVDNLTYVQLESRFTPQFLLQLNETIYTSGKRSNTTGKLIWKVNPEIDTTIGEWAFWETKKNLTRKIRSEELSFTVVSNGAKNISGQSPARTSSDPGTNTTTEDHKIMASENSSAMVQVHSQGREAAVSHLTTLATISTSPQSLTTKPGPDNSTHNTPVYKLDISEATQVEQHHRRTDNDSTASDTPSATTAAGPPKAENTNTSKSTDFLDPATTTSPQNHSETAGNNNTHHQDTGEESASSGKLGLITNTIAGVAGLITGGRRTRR
UniProt Q05320, sequence (Q05320 502-650, chain 2 of 2): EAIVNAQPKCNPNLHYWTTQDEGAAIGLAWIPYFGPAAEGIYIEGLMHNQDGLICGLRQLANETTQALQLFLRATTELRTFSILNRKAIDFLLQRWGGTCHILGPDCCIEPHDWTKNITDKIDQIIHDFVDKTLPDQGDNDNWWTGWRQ

Molecule	neutralization at 10 µg/mL [1] [%]	maximum inhibition of input virus [1]	EC50 [2] [µg/mL]	maximal binding, higher than the other antibodies [2] [%]	Abs 450 (1/27) [3] [Abs 450]	Abs 450 (Und.) [3] [Abs 450]
13C6 (antibody)	< 20					
KZ52 (antibody)		80% and 90%				
B1		100%	0.26			
B2		100%	0.07	100		
B3		100%	> 1		1.72	3.17
B4					2.97	3.37
